Drawing on the supplement of paper PMC10724198, this text covers protein stability index for 116 sequences.

± gives the standard deviation of the averaged measurements.
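Further: PSI is a weighted mean of sequencing reads over stability bins, variants kept only with over 10 reads, mCherry proximal and sfGFP distal, peptide attached via GGGS linker.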

This data set concerns Saccharomyces cerevisiae. The experiment in a line: protein stability index of tFT-peptide fusion (C-terminal peptide) (PSI (0-1 scale)); higher = more stable (slower turnover). The note with it: genetic background: wild type; temperature: 30 C. The procedure: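 Multiplexed protein stability (MPS) profiling in S. cerevisiae. Random 12-aa peptides (tFT-X12 library) are fused to the C-terminus of a sfGFP-mCherry tandem fluorescent timer, after mCherry and a GGGS linker. Cells are FACS-sorted into 8 mCherry/sfGFP bins and deep-sequenced. The protein stability index (PSI) is the read-weighted bin average, scaled from 0 (unstable) to 1 (stable). Only peptides with >10 reads are reported; cells were grown at 30 °C in SC-His with glucose.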
ARRIEGADAERG had a protein stability index of 0.668 ± 0.048.
Next, ARRVILRANGRI: 0.668 ± 0.035; ARSALFRCGSIA: 0.678 ± 0.02; ARTILGSFILHP: 0.662 ± 0.049.
Next, ARYTGPTRIRAE: 0.672 ± 0.1; ASAWHGLVFPPF: 0.779 ± 0.01.
For ASCQRCGSVLDL, the protein stability index amounted to 0.697 ± 0.014.
ASDMHRTNKPRE: the protein stability index was 0.671 ± 0.085.
Take ASFWLPSNLLPI: the protein stability index worked out at 0.7322 ± 0.0013.
Next, ASGGWGVGCPGV: 0.716 ± 0.041.
Next, ASGKRSGPNPCR: 0.72 ± 0.022; ASGWWGGAVGLR: 0.68375 ± 0.00064.
The sequence ASKKIDIEKRGT registered a protein stability index of 0.705 ± 0.14.
In turn, ASLPDHYPGPKI came in with a protein stability index of 0.759 ± 0.27.
For the sequence ASPRLPSPLSLT, the protein stability index came to 0.718 ± 0.12.
Sequence ASRRASLSLRGP registered a protein stability index of 0.73 ± 0.022.
On to ASRRSRLPWLLL, for which the protein stability index stood at 0.629 ± 0.0083.
Regarding ASRSRFMREQMV, the protein stability index worked out at 0.567 ± 0.027.
For the sequence ASRWGYSATTVG, the protein stability index is 0.697 ± 0.026.
Next, ASYVFVVEGGGG: 0.609 ± 0.018.
ATDAWNKNKESS: the protein stability index came out at 0.542 ± 0.04.
For ATHPGCATPDAH, the protein stability index is 0.704 ± 0.015.
Take ATPAPRGEVLVP: the protein stability index worked out at 0.6369 ± 0.0034.
ATPGALVSHPTL yielded a protein stability index of 0.729 ± 0.049.
The sequence ATPPHLLPAPLA registered a protein stability index of 0.656 ± 0.011.
ATSYRPPHFAIP: the protein stability index amounted to 0.693 ± 0.011.
Regarding ATVARNTDTSSP, the protein stability index was 0.679 ± 0.017.
Consider ATVYFCKVCGGR, for which the protein stability index was found to be 0.687 ± 0.019.
Turning to AVDPGASFPVSV, the protein stability index turned out to be 0.698 ± 0.0086.
Turning to AVGFFAASVPGF, the protein stability index was found to be 0.7293 ± 0.0069.
Regarding AVGMGCLSFFVV, the protein stability index worked out at 0.553 ± 0.056.
The sequence AVGMVLEYFTLG displayed a protein stability index of 0.671 ± 0.029.
Take AVRCEEKGLLLS: the protein stability index was determined as 0.674 ± 0.017.
In turn, AVRVSRFSCGGW yielded a protein stability index of 0.717 ± 0.038.
Next, AVSCTAWVTALG: 0.522 ± 0.012; AVSSGPGSCSNP: 0.668 ± 0.013; AVVRGRADCVMV: 0.656 ± 0.017.
The sequence AVVTVVDRVVRE yielded a protein stability index of 0.594 ± 0.032.
AVVYRGGRGGIS showed a protein stability index of 0.775 ± 0.047.
Next, AVWLGVGGRFVG: 0.781 ± 0.053.
Next, AVWLVVRGVRGR: 0.679 ± 0.034.
The sequence AVYWRRIRRGRA showed a protein stability index of 0.6714 ± 0.0018.
Next, AWDGVESGRGLE: 0.67797 ± 0.00016.
For the sequence AWFCLGGRRGMV, the protein stability index stood at 0.685 ± 0.023.
For AWGFHDAFGLGC, the protein stability index turned out to be 0.605 ± 0.032.
In the case of AWGGGSVVFWAV, the protein stability index was found to be 0.692 ± 0.055.
AWGGRVGWPKRR yielded a protein stability index of 0.734 ± 0.052.
In turn, AWGPGCVVRGRE had a protein stability index of 0.7151 ± 0.0012.
AWVCRLDGPVGG: the protein stability index was 0.634 ± 0.04.
AWVLVVLGSSHR had a protein stability index of 0.586 ± 0.05.
Next, AWVVVGEGKGWR: 0.717 ± 0.035.
Sequence AWWWGCSSIGYW showed a protein stability index of 0.787 ± 0.085.
The sequence AYCGGSNKCTTE yielded a protein stability index of 0.732 ± 0.026.
Regarding AYCGLEGFLGLG, the protein stability index came out at 0.688 ± 0.051.
AYLGFYLLPYSS: the protein stability index was found to be 0.717 ± 0.13.
For AYRKQGRGERKG, the protein stability index stood at 0.65 ± 0.011.
Turning to AYRLWQTESKFD, the protein stability index amounted to 0.699 ± 0.057.
On to CAGSRIYCVSLS, for which the protein stability index was found to be 0.641 ± 0.062.
In the case of CASGKVCVRFCW, the protein stability index stood at 0.683 ± 0.033.
On to CAVPTCSRVPIV, for which the protein stability index turned out to be 0.601 ± 0.078.
With CCAVLSSMSSFD, the protein stability index is 0.668 ± 0.053.
The sequence CCFFPSLRSPSF registered a protein stability index of 0.726 ± 0.011.
CCLSISSSLLDL returned a protein stability index of 0.675 ± 0.13.
CCLSVSSHLPHS: the protein stability index is 0.7096 ± 0.00068.
With CCPHMLLVLTNI, the protein stability index turned out to be 0.509 ± 0.011.
On to CCRDLWVWLVKW, for which the protein stability index was 0.619 ± 0.071.
CCSLIPRAPSGR: the protein stability index stood at 0.687 ± 0.051.
Consider CDWQMMKVQERS, for which the protein stability index amounted to 0.698 ± 0.021.
The sequence CECRCECGIGDK came in with a protein stability index of 0.632 ± 0.096.
As to CEYRRLVISVFD, the protein stability index turned out to be 0.547 ± 0.028.
Next, CFAPRAPIRRFF: 0.733 ± 0.032.
With CFCSLLSPSLFL, the protein stability index is 0.751 ± 0.091.
Next, CFEGPSSRRYFV: 0.699 ± 0.083; CFGSRMGVVGFC: 0.726 ± 0.065; CFGVSVYIGLGV: 0.588 ± 0.011.
CFGYRGAPFCGQ: the protein stability index is 0.669 ± 0.063.
Sequence CFKPLRLEPGCC showed a protein stability index of 0.665 ± 0.094.
Regarding CFLCLAYGFFSF, the protein stability index came to 0.571 ± 0.03.
In turn, CFLVLFAHPFVL came in with a protein stability index of 0.555 ± 0.007.
Next, CFPLSPSCIFLR: 0.464 ± 0.077; CFSRCLSLLSSS: 0.636 ± 0.021; CGAALCSWEVVV: 0.627 ± 0.018.
CGCVAVNSFPVL returned a protein stability index of 0.69 ± 0.011.
Take CGGGGVVGAGWG: the protein stability index was determined as 0.728 ± 0.061.
CGGSARAGVVFL: the protein stability index worked out at 0.699 ± 0.066.
CGGWTRRSGDMV had a protein stability index of 0.678 ± 0.042.
Next, CGHAGQTPRTSR: 0.718 ± 0.065; CGISTRYHNRES: 0.696 ± 0.023.
Sequence CGLLEGGRCRKE returned a protein stability index of 0.7922 ± 0.0071.
Next, CGLVGVALSEGV: 0.65 ± 0.086; CGRACWTGEDDV: 0.68 ± 0.037; CGRGCTRGVNLG: 0.689 ± 0.069.
Sequence CGSWAGRAWPGR had a protein stability index of 0.755 ± 0.014.
With CGVGWSWTWSGW, the protein stability index was found to be 0.698 ± 0.078.
Next, CGVYPQLSGGFG: 0.687 ± 0.018; CGWTSPSLVPTC: 0.791 ± 0.045; CGYAAGGELLQD: 0.705 ± 0.012.
On to CHGCSGFSYAPS, for which the protein stability index is 0.669 ± 0.039.
Next, CIALLTPPCIIF: 0.72 ± 0.065.
Next, CIDCGRKDIARL: 0.785 ± 0.066.
CIPHVVPYSTGK displayed a protein stability index of 0.697 ± 0.014.
Next, CITLLDILFRPS: 0.684 ± 0.019; CKKRSRCGNTIM: 0.755 ± 0.15.
Next, CKMGNQNIRLYV: 0.599 ± 0.033.
For the sequence CKPAGEGPTASM, the protein stability index is 0.678 ± 0.037.
Sequence CKVRSYDDFVLV displayed a protein stability index of 0.6231 ± 0.002.
In turn, CLAGLGPADFGM yielded a protein stability index of 0.674 ± 0.057.
The sequence CLATVFWHHVKF gave a protein stability index of 0.63 ± 0.058.
With CLAVPFSFRLVW, the protein stability index worked out at 0.613 ± 0.041.
CLHSKPSPESRT displayed a protein stability index of 0.687 ± 0.041.
As to CLISDLRFVNKR, the protein stability index came to 0.69 ± 0.056.
CLLIRAQRNALW: the protein stability index amounted to 0.64 ± 0.036.
Turning to CLPCSGWLSWPH, the protein stability index was 0.664 ± 0.0069.
The sequence CLPLSPPVPHLR gave a protein stability index of 0.738 ± 0.12.
Next, CLPPSSIVPFIS: 0.59 ± 0.024; CLREYGGRGGWE: 0.706 ± 0.028.
